The assay concerns the target HLA-DR on Raji cells, the Lym-1 antigen (HLA-Dr10) (human). The assay is described as follows: cell-based or functional assay.

The substance Lym-1 CAR (on primary human T-cells) returned a lysis of target Raji cells (LDH cytotoxicity assay) of 22%.

(Values after patent US20160355590A1.)
